Experimental data from article PMC6242971 (2018).
Where no end group is shown, it is not given here. The star is where a group is joined. FITC = O=C1OC2(c3ccc(O)cc3Oc3cc(O)ccc32)c2ccc(NC(=S)*)cc21

Tests used:
Assay in all cases: FP
GST-tagged GluK2 ATD = target: T1, GST-tagged GluK2 ATD (rat)
T1 chain: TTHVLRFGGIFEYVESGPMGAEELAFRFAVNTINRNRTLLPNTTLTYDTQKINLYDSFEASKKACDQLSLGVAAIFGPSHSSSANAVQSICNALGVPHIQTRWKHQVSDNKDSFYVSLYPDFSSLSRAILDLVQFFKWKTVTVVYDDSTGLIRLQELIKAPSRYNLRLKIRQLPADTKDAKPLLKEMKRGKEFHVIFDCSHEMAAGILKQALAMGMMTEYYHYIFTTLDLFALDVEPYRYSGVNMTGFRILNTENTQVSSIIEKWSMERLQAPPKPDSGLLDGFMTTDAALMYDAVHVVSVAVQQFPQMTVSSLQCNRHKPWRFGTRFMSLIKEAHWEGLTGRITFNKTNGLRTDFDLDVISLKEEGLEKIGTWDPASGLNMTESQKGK

[1] = target: T2, GST-tagged GluK2 region corresponding to GluK1 N72-137 (rat, UniProt P42260 71-136)
T2 chain: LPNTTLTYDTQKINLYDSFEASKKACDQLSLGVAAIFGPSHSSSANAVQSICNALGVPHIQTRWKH

GST-tagged GluK1 ATD = target: T3, GST-tagged GluK1 ATD (rat)
T3 chain: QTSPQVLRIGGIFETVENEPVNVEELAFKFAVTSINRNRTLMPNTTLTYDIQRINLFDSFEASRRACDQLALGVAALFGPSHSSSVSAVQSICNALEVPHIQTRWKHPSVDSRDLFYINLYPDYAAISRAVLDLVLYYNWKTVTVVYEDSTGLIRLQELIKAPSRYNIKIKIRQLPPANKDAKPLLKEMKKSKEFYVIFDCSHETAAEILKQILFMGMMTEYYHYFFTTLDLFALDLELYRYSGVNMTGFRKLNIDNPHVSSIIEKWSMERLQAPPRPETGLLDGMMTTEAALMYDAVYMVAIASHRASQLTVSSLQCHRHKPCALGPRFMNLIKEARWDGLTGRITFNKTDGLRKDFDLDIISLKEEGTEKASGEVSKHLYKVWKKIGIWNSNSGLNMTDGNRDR

[2] = target: T4, GST-tagged GluK1 N72-137 region (rat, UniProt P22756 72-137)
T4 chain: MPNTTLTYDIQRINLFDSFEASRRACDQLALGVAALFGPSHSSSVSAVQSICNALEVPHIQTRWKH

{FITC}-MERSTVLIQPGLWTRDTSWTLLYFLCYILP [FITC-labelled GluK1 signal peptide]
Kd (GST-tagged GluK2 ATD): 35.7 µM | Kd [1]: 36.3 µM | Kd (GST-tagged GluK1 ATD): 13.7 µM | Kd [2]: 14.1 µM
